Where “and” joins values, the source holds several entries; their conditions need not be identical. Identical values can stand only once.
Biological target: MUC5AC antigen (human, UniProt P98088)
Assay: SPR

B1: NEO-102 (Ensituximab) (antibody, V domains shown)
VH: QVQLKESGPDLVAPSQSLSITCTVSGFELSKFGVIWVRQPPGKGLEWLGVIWGDGSTVYNSKLISRLSISKENSKSQVFLKLNSLQADDTATYYCVKPGGDYWGHGTSVTVSS
VL: QVVLTQSPVIMSASPGEKVTMTCSASSSISYMYWYQQKPGTSPKRWIYDTSKLGSGVPARFSGSGSGTSYSLTISNMEAGDAATYYCHQRDSYPWTFGGGTNLEIK
**Q.** B1 was tested. Which Kd did it give?
**A.** Its Kd is 7.38 nM and 5.6 nM.

— patent publication EP4762086
